Measurements as given in patent US11549115B2, “Compositions and methods for regulated gene expression” (YALE UNIVERSITY, priority 2017, dated 2023).

Key:
sialidases = settings: cited from earlier work
B. thetaiotaomicron [1] = settings: cited from earlier work
B. thetaiotaomicron [2] = experiment: Polymyxin B susceptibility (MIC, E-test strips); format: cell-based, Bacteroides thetaiotaomicron; settings: for PMB resistance of B. thetaiotaomicron lpxF mutant expressing lpxF from the promoter: no TetR
Procedure: Minimum inhibitory concentrations (MICs) were determined on solid medium using E-test strips (Biomerieux) as previously described (Cullen, T. W. et al., 2015, Science, 347:170-175), except that cultures were initially grown for 18 hours in liquid medium. Cultures were adjusted to OD600˜1.0 and 100 μL of cell suspension was then spread onto BHI-blood agar plates. Surface liquid was allowed to dry in a fume hood for 10 minutes, followed by application of the E-test strip to the agar surface.

B. thetaiotaomicron [3] = experiment: aTC-induced expression of periplasm-targeted T6SS effectors (viability, culture density); format: cell-based, Bacteroides thetaiotaomicron; settings: under P1TDP in Bt::tetR, aTC added
Source text: To direct Bte1 and Bfe1 to the periplasm upon expression in B. thetaiotaomicron, the genes encoding each effector were first PCR amplified from genomic DNA purified from B. fragilis NCTC 9343 and B. fragilis 638R, respectively, using the CTAB method. A periplasmic localization signal was searched for that would be cleaved after translocation to prevent steric hindrance of the effector. To identify proteins that encode N-terminal B. thetaiotaomicron periplasmic localization signals that are post-translationally cleaved after protein translocation, the proteome of the Bacteroides thetaiotaomicron VPI-5482 chromosome was searched for signal peptides (PTM/Processing; Molecule Processing, Signal Peptide) using UniProt (UniProt Consortium, 2015, Nucleic Acids Research, 43:D204-D212). To exclude membrane proteins that potentially encode an uncleaved signal peptide, the search was refined by an additional query for the term “periplasmic” under Protein name. To identify a short periplasmic signal, the maximum length for the signal peptide was set at 20 amino acids. […] Therefore, the B. fragilis effectors were fused at the 5′ end (minus the ATG start codon) to the first 63 base pairs (encoding the first 21 amino acids) of the BT4676 open reading frame (see Table 2 for sequence) in order to localize them to the periplasm after expression in B. thetaiotaomicron.

[4] = tested on: NanoLuc luciferase reporter in B. thetaiotaomicron; experiment: NanoLuc luciferase assay from in vitro samples (promoter activity); format: cell-based, Bacteroides thetaiotaomicron
Procedure: The NanoLuc luciferase assay was performed as described (Mimee, M. et al., 2015, Cell Syst., 1:62-71), with the following modifications. All strains were first grown for 18 hours in TYG medium or Gut Microbiota Medium and diluted 250-fold into fresh medium in appropriate conditions (with or without aTC). Cultures were grown to mid exponential phase (OD600 0.3-0.4) and colony forming units (CFU) were measured by dilution plating. 500 μL of the culture was centrifuged at 21,130×g for 3 minutes, resuspended in 50 μL 1× BugBuster (Novagen) in 1×PBS and lysed by one cycle of freeze-thaw and nutation at 26° C. for 10 minutes. Lysates were cleared of cellular debris by centrifugation at 21,130×g for 10 minutes at 4° C. 10 μL of the supernatant was mixed with an equal volume of NanoLuc Reaction Buffer using the Nano-Glo Luciferase Assay System (Promega) and incubated for 5 minutes at 26° C. to induce luminescence production. Relative Light Units (RLU) were measured using a fluorescence plate reader (BioTek Synergy H1) with an integration time of 1 second at a gain setting of 100. Luminescence values were normalized to colony forming units (CFUs) because experimental conditions (e.g., growth medium, antibiotics, aTC, heterologous gene expression) affect the correlation between CFUs and OD600 in Bacteroides.

CC(=O)N[C@H]1[C@H]([C@H](O)[C@H](O)CO)O[C@@](Oc2ccc([N+](=O)[O-])cc2)(C(=O)O)C[C@@H]1O [pNP-SA, 2-O-(p-Nitrophenyl)-t-D-N-acetylneuraminic acid]
Km (sialidases): 110 µM

polymixin B [PMB]
reduction of PMB resistance by deletion of lpxF (B. thetaiotaomicron [1]): four orders of magnitude | PMB MIC (B. thetaiotaomicron [2]; Bt::tetR lpxF carrying P1TDP-lpxF fusion, TetR repressed, no aTC): < 0.064 µg/mL | reduction of PMB MIC by TetR repression of P1TDP-lpxF (B. thetaiotaomicron [2]; Bt::tetR lpxF, no aTC): over 10,000 fold | PMB MIC (B. thetaiotaomicron [2]; wildtype B. thetaiotaomicron): > 1024 µg/mL

B1: ss-Bte1: Periplasmic localized T6SS effector from B. fragilis NCTC 9343 (protein)
chain: MKKILSLLVMAIVAIQFSFAGGKEIEIKKLPEFEAMVNAGNTTYTGLVEGIGYVYWTTETLYFIRTNPEQLWAIPKYQQIPFPYFQRKDAIIETKTLHTLHVLSKDELLKLDYDAYYAFYGIVEEMLKFIHRADAIKSYCEIPLPIIKSKGALKGNDARNGILSLGSQINDQIGAPLDAANMLMDNKHIGKIGDGLSLISIIDEVGNGEYWSAAGDILLFAAGKTKLSPYMTVISLGTWMYETDLMQWRLACINYSDYKKTLIKYRELQKKFESGDKSVEEKMNECHKILNSHYIEMQKNLGNLGVKF
modifications: Periplasmic-localized T6SS effector from B. fragilis NCTC 9343
toxicity on expression in B. thetaiotaomicron (B. thetaiotaomicron [3]): highly toxic

B2: P1TDP^B40: Synthetic aTC-inducible promoter (distal and proximal tetO2) + RBS B40 (nucleic acid)
DNA: TTTGCACCCGCTTTCCAAGAGAAGAAAGCCTTGTTAAATTGACTTAGTGTAAAAGCGCAGTACTGCTTGACCATAAGAACAAAAAAATCTCTATCACTGATAGGGATAAAGTTTGGAAGATAAAGCTAAAAGTTCTTATCTTTGCAGTCTCCCTATCAGTGATAGAGACGCATTTTAAAATAAAATAAATCATGTAGTTAATTAAACGAATCCATG
modifications: P1TDP-B40 Synthetic aTC-inducible promoter (distal and promixal tetO2)+RBS B40
increase of dynamic response to aTC over P1TDP^GH023 ([4]; Bt::tetR): 3.3 fold | reporter expression relative to background in uninduced state ([4]; Bt::tetR (TetR present), no aTC): 1.4 fold | induction of reporter activity (luminescence) in response to aTC ([4]; Bt::tetR, aTC 100 ng/mL): 9,100 fold

B3: P1TDP^C56: Synthetic aTC-inducible promoter (distal and proximal tetO2) + RBS C56 (nucleic acid)
DNA: TTTGCACCCGCTTTCCAAGAGAAGAAAGCCTTGTTAAATTGACTTAGTGTAAAAGCGCAGTACTGCTTGACCATAAGAACAAAAAAATCTCTATCACTGATAGGGATAAAGTTTGGAAGATAAAGCTAAAAGTTCTTATCTTTGCAGTCTCCCTATCAGTGATAGAGACGCATTTTAAAATAAAATAAATTATTCGTTTAGTTAAACGAATCCATG
modifications: P1TDP-C56 Synthetic aTC-inducible promoter (distal and promixal tetO2)+RBS C56
luminescence lower than the weakest native promoter tested ([4]; OFF state, 18 native B. thetaiotaomicron promoters): 6.7 fold

B4: P1TDP^A21: Synthetic aTC-inducible promoter (distal and proximal tetO2) + RBS A21 (nucleic acid)
DNA: TTTGCACCCGCTTTCCAAGAGAAGAAAGCCTTGTTAAATTGACTTAGTGTAAAAGCGCAGTACTGCTTGACCATAAGAACAAAAAAATCTCTATCACTGATAGGGATAAAGTTTGGAAGATAAAGCTAAAAGTTCTTATCTTTGCAGTCTCCCTATCAGTGATAGAGACGCATTTTAAAATAAAATAAATTATTTATGATATTAAACGAATCCATG
modifications: P1TDP-A21 Synthetic aTC-inducible promoter (distal and promixal tetO2)+RBS A21
luminescence higher than the strongest native promoter tested ([4]; ON state, 18 native B. thetaiotaomicron promoters): 14 fold

B5: P1: Constitutive promoter of Bacteroides 16S rDNA (BT_r09 P1) (nucleic acid)
DNA: TTTTGCACCCGCTTTCCAAGAGAAGAAAGCCTTGTTAAATTGACTTAGTGTAAAAGCGCAGTACTGCTTGACCATAAGAACAAAAAAACTTCCGATAAAGTTTGGAAGATAAAGCTAAAAGTTCTTATCTTTGCAGTC
modifications: Constitutive promoter (last nucleotide is +1 TSS)
effect of TetR on promoter activity ([4]; Bt::tetR, no aTC): no effect | PMB resistance of B. thetaiotaomicron lpxF mutant expressing lpxF from the promoter (B. thetaiotaomicron [2]): increases PMB resistance to wildtype levels

B6: ss-Bfe1: Periplasmic localized T6SS effector from B. fragilis 638R (protein)
chain: MKKILSLLVMAIVAIQFSFAGAYRNEYKTQSEFNVILERGDDYEGFVVGLGYTWMSSKVILPVNQNGWSPISRNVSVDESFHTIVSERKYDTSQYAYEKSLMQDPTKVSEKVRDLIVKNKGNNITEINLGQEKQYLPTDNSQISIVITDTGSRYEIVISATDNSNGKTYEAKYESLTDLVSAVRDSGSLPAVNKEGPNLEGLAGLGFGIAETAGNWAEKIMDNRGAYLPKQMRFSPKTLPPIIRLPLGNYQVPAKGMSRVRGVGKALGWAGMVLTGYQVVRDVQNGRFAVAGTRIAVAGLAYGVTFIPYVGWVLAIGIGVADYTWGDEFYDWIDNRASELEMWWDGVRLAL
modifications: Periplasmic-localized T6SS effector from B. fragilis 638R
toxicity on expression in B. thetaiotaomicron (B. thetaiotaomicron [3]): highly toxic

B7: P2: Constitutive promoter of Bacteroides 16S rDNA (nucleic acid)
DNA: AAGAAAAGGCGTTTTGTTTTTCTTCTTTACCTTCTTTCCCTTTCGCTAAGAGAGTCTGAGAAACGATAGAAAAAGAAAAGCGAAAAAACTTCCGAAAACATTTGGTAGTTAAAATAAAACCTCTTACCTTTGCACCC
modifications: P2 Constitutive promoter (last nucleotide is +1 TSS)
notes: Constitutive promoter of Bacteroides 16S rDNA
PMB resistance of B. thetaiotaomicron lpxF mutant expressing lpxF from the promoter (B. thetaiotaomicron [2]): increases PMB resistance to wildtype levels

B8: P1TP: Synthetic aTC-inducible promoter (proximal tetO2) + RBS GH023 (nucleic acid)
DNA: TTTTGCACCCGCTTTCCAAGAGAAGAAAGCCTTGTTAAATTGACTTAGTGTAAAAGCGCAGTACTGCTTGACCATAAGAACAAAAAAACTTCCGATAAAGTTTGGAAGATAAAGCTAAAAGTTCTTATCTTTGCAGTCTCCCTATCAGTGATAGAGACGAAATAAAGACATATAAAAGAAAAGACACCATG
modifications: P1TPSynthetic aTC-inducible promoter (proximal tetO2)+RBS GH023
PMB resistance of B. thetaiotaomicron lpxF mutant expressing lpxF from the promoter (B. thetaiotaomicron [2]): increases PMB resistance to wildtype levels

B9: P1TD: Synthetic aTC-inducible promoter (distal tetO2) + RBS GH023 (nucleic acid)
DNA: TTTGCACCCGCTTTCCAAGAGAAGAAAGCCTTGTTAAATTGACTTAGTGTAAAAGCGCAGTACTGCTTGACCATAAGAACAAAAAAATCTCTATCACTGATAGGGATAAAGTTTGGAAGATAAAGCTAAAAGTTCTTATCTTTGCAGTCCGAAATAAAGACATATAAAAGAAAAGACACCATG
modifications: P1TD Synthetic aTC-inducible promoter (distal tetO2)+RBS GH023
PMB resistance of B. thetaiotaomicron lpxF mutant expressing lpxF from the promoter (B. thetaiotaomicron [2]): increases PMB resistance to wildtype levels
